# Measurements as given in article PMC9482650, “Quantitative fragmentomics allow affinity mapping of interactomes” (Nature Communications, 2022).
# T1: RAPGEF6, Q8TEU7
# T1 sequence (Q8TEU7 525-625, limits assumed, looked up): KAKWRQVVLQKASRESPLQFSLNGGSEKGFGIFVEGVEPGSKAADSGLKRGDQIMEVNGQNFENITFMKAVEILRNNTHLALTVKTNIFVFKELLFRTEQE
# T2: PTPN13_1, Q12923
# T2 sequence (Q12923 1088-1188, limits assumed, looked up): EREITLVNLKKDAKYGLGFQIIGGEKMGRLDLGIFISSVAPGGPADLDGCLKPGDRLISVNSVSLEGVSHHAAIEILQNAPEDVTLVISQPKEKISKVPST
# T3: HTRA4, P83105
# T3 sequence (P83105 378-476, limits assumed, looked up): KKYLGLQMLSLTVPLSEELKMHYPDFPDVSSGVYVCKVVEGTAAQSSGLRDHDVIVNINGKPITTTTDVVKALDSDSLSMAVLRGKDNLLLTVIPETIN
# T4: PDZD7_3, Q9H5P4
# T4 sequence (Q9H5P4 857-944, limits assumed, looked up): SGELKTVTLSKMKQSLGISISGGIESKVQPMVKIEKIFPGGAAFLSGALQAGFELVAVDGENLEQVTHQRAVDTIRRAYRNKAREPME
# T5: RHPN1, Q8TCX5
# T5 sequence (Q8TCX5 508-602, limits assumed, looked up): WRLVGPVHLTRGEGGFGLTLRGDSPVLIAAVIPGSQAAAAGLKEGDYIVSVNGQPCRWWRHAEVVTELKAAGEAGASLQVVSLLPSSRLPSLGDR
# T6: TIAM2, Q8IVF5
# T6 sequence (Q8IVF5 885-986, limits assumed, looked up): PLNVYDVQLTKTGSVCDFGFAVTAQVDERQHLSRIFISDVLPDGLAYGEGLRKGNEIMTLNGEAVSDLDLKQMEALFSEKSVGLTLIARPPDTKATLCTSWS
# T7: FRMPD1, Q5SYB0
# T7 sequence (Q5SYB0 52-145, limits assumed, looked up): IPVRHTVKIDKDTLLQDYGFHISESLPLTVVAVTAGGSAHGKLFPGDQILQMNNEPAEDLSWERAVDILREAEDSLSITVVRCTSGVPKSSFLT
# T8: SIPA1L2, Q9P2F8
# T8 sequence (Q9P2F8 945-1036, limits assumed, looked up): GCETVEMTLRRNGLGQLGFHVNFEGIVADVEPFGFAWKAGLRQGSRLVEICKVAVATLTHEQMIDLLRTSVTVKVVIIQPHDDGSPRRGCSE
# T9: DVL3, Q92997
# T9 sequence (Q92997 244-331, limits assumed, looked up): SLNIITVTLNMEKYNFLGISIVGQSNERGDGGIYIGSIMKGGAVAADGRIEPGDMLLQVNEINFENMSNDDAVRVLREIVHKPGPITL
# T10: APBA3_1, O96018
# T10 sequence (O96018 389-490, limits assumed, looked up): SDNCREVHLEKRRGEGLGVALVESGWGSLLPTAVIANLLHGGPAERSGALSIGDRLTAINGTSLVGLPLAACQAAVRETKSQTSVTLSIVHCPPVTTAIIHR
# T11: SNTG2, Q9NY99
# T11 sequence (Q9NY99 68-166, limits assumed, looked up): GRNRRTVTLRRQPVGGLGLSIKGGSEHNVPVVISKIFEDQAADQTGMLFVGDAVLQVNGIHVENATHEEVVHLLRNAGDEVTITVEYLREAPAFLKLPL
# B1: PLEKHA1, Q9HB21 (peptide)
# chain: DDASLPVSDV
# Molecular target: MAGI2_6, Q86UL8
# Test: holdup assay
# Set-up: key: below the threshold = too weak to quantify, mostly under pKd 3.1 to 4
# Conditions: plain residues with an end cap or a label only (N-terminal biotin on a linker: ado-ado)
# Sequence of MAGI2_6, Q86UL8 (Q86UL8 1141-1229): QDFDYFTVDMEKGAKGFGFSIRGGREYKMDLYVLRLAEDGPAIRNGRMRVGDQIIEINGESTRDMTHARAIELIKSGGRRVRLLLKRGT
row,pKd,Binder
1,5.09,B1

# Molecular target: DLG2_3, Q15700
# Test: holdup assay
# Set-up: key: below the threshold = too weak to quantify, mostly under pKd 3.1 to 4
# Conditions: plain residues with an end cap or a label only (N-terminal biotin on a linker: ado-ado)
row,pKd,Binder
1,below the threshold,B1

# Molecular target: GRASP, Q7Z6J2
# Test: holdup assay
# Set-up: key: below the threshold = too weak to quantify, mostly under pKd 3.1 to 4
# Conditions: plain residues with an end cap or a label only (N-terminal biotin on a linker: ado-ado)
# Sequence of GRASP, Q7Z6J2 (Q7Z6J2 96-193): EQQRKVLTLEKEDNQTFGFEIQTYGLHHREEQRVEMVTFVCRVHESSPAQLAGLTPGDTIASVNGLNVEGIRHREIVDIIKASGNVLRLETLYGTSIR
row,pKd,Binder
1,3.65,B1

# Molecular target: FRMPD2_2, Q68DX3
# Test: holdup assay
# Set-up: key: below the threshold = too weak to quantify, mostly under pKd 3.1 to 4
# Conditions: plain residues with an end cap or a label only (N-terminal biotin on a linker: ado-ado)
# Sequence of FRMPD2_2, Q68DX3 (Q68DX3 944-1038): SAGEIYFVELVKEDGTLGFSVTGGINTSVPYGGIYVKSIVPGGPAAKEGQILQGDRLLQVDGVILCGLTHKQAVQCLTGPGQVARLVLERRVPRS
row,pKd,Binder
1,4.87,B1

# Molecular target: ARHGEF12, Q9NZN5-2
# Test: holdup assay
# Set-up: key: below the threshold = too weak to quantify, mostly under pKd 3.1 to 4
# Conditions: plain residues with an end cap or a label only (N-terminal biotin on a linker: ado-ado)
# Sequence of ARHGEF12, Q9NZN5-2 (Q9NZN5 other isoform, or with tags, fused parts or gaps): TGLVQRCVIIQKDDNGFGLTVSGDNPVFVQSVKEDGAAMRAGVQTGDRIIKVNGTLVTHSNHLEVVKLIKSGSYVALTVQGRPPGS
row,pKd,Binder
1,4.36,B1

# Molecular target: MAGI2_3, Q86UL8
# Test: holdup assay
# Set-up: key: below the threshold = too weak to quantify, mostly under pKd 3.1 to 4
# Conditions: plain residues with an end cap or a label only (N-terminal biotin on a linker: ado-ado)
# Sequence of MAGI2_3, Q86UL8 (Q86UL8 600-682): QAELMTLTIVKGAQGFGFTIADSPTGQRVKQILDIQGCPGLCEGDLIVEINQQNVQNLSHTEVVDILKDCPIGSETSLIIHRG
row,pKd,Binder
1,below the threshold,B1

# Molecular target: LNX1_2, Q8TBB1
# Test: holdup assay
# Set-up: key: below the threshold = too weak to quantify, mostly under pKd 3.1 to 4
# Conditions: plain residues with an end cap or a label only (N-terminal biotin on a linker: ado-ado)
# Sequence of LNX1_2, Q8TBB1 (Q8TBB1 371-470): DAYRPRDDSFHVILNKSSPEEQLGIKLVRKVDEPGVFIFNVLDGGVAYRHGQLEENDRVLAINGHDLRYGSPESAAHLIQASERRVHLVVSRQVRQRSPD
row,pKd,Binder
1,below the threshold,B1

# Molecular target: T1, RAPGEF6, Q8TEU7
# Test: holdup assay
# Set-up: key: below the threshold = too weak to quantify, mostly under pKd 3.1 to 4
# Conditions: plain residues with an end cap or a label only (N-terminal biotin on a linker: ado-ado)
row,pKd,Binder
1,below the threshold,B1

# Molecular target: T2, PTPN13_1, Q12923
# Test: holdup assay
# Set-up: key: below the threshold = too weak to quantify, mostly under pKd 3.1 to 4
# Conditions: plain residues with an end cap or a label only (N-terminal biotin on a linker: ado-ado)
row,pKd,Binder
1,below the threshold,B1

# Molecular target: T3, HTRA4, P83105
# Test: holdup assay
# Set-up: key: below the threshold = too weak to quantify, mostly under pKd 3.1 to 4
# Conditions: plain residues with an end cap or a label only (N-terminal biotin on a linker: ado-ado)
row,pKd,Binder
1,below the threshold,B1

# Molecular target: T4, PDZD7_3, Q9H5P4
# Test: holdup assay
# Set-up: key: below the threshold = too weak to quantify, mostly under pKd 3.1 to 4
# Conditions: plain residues with an end cap or a label only (N-terminal biotin on a linker: ado-ado)
row,pKd,Binder
1,5.22,B1

# Molecular target: FRMPD2_1, Q68DX3
# Test: holdup assay
# Set-up: key: below the threshold = too weak to quantify, mostly under pKd 3.1 to 4
# Conditions: plain residues with an end cap or a label only (N-terminal biotin on a linker: ado-ado)
# Sequence of FRMPD2_1, Q68DX3 (Q68DX3 770-861): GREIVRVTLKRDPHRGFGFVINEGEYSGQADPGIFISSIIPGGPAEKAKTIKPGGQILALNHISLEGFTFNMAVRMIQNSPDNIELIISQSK
row,pKd,Binder
1,below the threshold,B1

# Molecular target: LNX1_1, Q8TBB1
# Test: holdup assay
# Set-up: key: below the threshold = too weak to quantify, mostly under pKd 3.1 to 4
# Conditions: plain residues with an end cap or a label only (N-terminal biotin on a linker: ado-ado)
# Sequence of LNX1_1, Q8TBB1 (Q8TBB1 261-371): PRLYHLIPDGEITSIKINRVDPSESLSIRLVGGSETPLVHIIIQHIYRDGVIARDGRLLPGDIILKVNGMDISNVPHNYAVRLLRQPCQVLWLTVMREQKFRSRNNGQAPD
row,pKd,Binder
1,4.91,B1

# Molecular target: T5, RHPN1, Q8TCX5
# Test: holdup assay
# Set-up: key: below the threshold = too weak to quantify, mostly under pKd 3.1 to 4
# Conditions: plain residues with an end cap or a label only (N-terminal biotin on a linker: ado-ado)
row,pKd,Binder
1,4.46,B1

# Molecular target: FRMPD4, Q14CM0
# Test: holdup assay
# Set-up: key: below the threshold = too weak to quantify, mostly under pKd 3.1 to 4
# Conditions: plain residues with an end cap or a label only (N-terminal biotin on a linker: ado-ado)
# Sequence of FRMPD4, Q14CM0 (Q14CM0 67-160): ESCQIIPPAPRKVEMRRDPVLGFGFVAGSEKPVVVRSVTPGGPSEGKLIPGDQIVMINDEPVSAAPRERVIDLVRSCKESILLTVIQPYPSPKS
row,pKd,Binder
1,below the threshold,B1

# Molecular target: GRIP2_4, Q9C0E4
# Test: holdup assay
# Set-up: key: below the threshold = too weak to quantify, mostly under pKd 3.1 to 4
# Conditions: plain residues with an end cap or a label only (N-terminal biotin on a linker: ado-ado)
# Sequence of GRIP2_4, Q9C0E4 (Q9C0E4 446-548): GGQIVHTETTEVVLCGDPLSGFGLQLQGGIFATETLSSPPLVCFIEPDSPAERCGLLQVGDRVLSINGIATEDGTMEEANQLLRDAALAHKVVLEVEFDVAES
row,pKd,Binder
1,below the threshold,B1

# Molecular target: NHERF4_4, Q86UT5
# Test: holdup assay
# Set-up: key: below the threshold = too weak to quantify, mostly under pKd 3.1 to 4
# Conditions: plain residues with an end cap or a label only (N-terminal biotin on a linker: ado-ado)
# Sequence of NHERF4_4, Q86UT5 (Q86UT5 464-550): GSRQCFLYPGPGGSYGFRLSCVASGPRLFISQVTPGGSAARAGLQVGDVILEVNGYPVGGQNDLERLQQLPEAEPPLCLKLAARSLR
row,pKd,Binder
1,below the threshold,B1

# Molecular target: Inadl_8, Q8NI35
# Test: holdup assay
# Set-up: key: below the threshold = too weak to quantify, mostly under pKd 3.1 to 4
# Conditions: plain residues with an end cap or a label only (N-terminal biotin on a linker: ado-ado)
# Sequence of Inadl_8, Q8NI35 (Q8NI35 1425-1530): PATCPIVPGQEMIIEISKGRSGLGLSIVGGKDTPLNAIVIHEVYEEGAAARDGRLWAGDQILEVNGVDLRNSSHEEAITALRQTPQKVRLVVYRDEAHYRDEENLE
row,pKd,Binder
1,4.94,B1

# Molecular target: Inadl_6, Q8NI35
# Test: holdup assay
# Set-up: key: below the threshold = too weak to quantify, mostly under pKd 3.1 to 4
# Conditions: plain residues with an end cap or a label only (N-terminal biotin on a linker: ado-ado)
# Sequence of Inadl_6, Q8NI35 (Q8NI35 1058-1167): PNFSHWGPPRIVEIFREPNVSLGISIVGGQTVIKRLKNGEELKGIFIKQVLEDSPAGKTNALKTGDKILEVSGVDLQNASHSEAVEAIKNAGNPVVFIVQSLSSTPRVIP
row,pKd,Binder
1,3.65,B1

# Molecular target: FRMPD2_3, Q68DX3
# Test: holdup assay
# Set-up: key: below the threshold = too weak to quantify, mostly under pKd 3.1 to 4
# Conditions: plain residues with an end cap or a label only (N-terminal biotin on a linker: ado-ado)
# Sequence of FRMPD2_3, Q68DX3 (Q68DX3 1073-1166): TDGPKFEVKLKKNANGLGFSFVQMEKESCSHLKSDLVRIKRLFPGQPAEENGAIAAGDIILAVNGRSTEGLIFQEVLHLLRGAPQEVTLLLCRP
row,pKd,Binder
1,below the threshold,B1

# Molecular target: T6, TIAM2, Q8IVF5
# Test: holdup assay
# Set-up: key: below the threshold = too weak to quantify, mostly under pKd 3.1 to 4
# Conditions: plain residues with an end cap or a label only (N-terminal biotin on a linker: ado-ado)
row,pKd,Binder
1,below the threshold,B1

# Molecular target: PDZRN4_1, Q6ZMN7
# Test: holdup assay
# Set-up: key: below the threshold = too weak to quantify, mostly under pKd 3.1 to 4
# Conditions: plain residues with an end cap or a label only (N-terminal biotin on a linker: ado-ado)
# Sequence of PDZRN4_1, Q6ZMN7 (Q6ZMN7 213-318): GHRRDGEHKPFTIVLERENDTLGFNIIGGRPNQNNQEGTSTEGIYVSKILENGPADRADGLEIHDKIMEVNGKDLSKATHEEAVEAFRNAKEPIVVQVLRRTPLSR
row,pKd,Binder
1,below the threshold,B1

# Molecular target: T7, FRMPD1, Q5SYB0
# Test: holdup assay
# Set-up: key: below the threshold = too weak to quantify, mostly under pKd 3.1 to 4
# Conditions: plain residues with an end cap or a label only (N-terminal biotin on a linker: ado-ado)
row,pKd,Binder
1,below the threshold,B1

# Molecular target: T8, SIPA1L2, Q9P2F8
# Test: holdup assay
# Set-up: key: below the threshold = too weak to quantify, mostly under pKd 3.1 to 4
# Conditions: plain residues with an end cap or a label only (N-terminal biotin on a linker: ado-ado)
row,pKd,Binder
1,below the threshold,B1

# Molecular target: T9, DVL3, Q92997
# Test: holdup assay
# Set-up: key: below the threshold = too weak to quantify, mostly under pKd 3.1 to 4
# Conditions: plain residues with an end cap or a label only (N-terminal biotin on a linker: ado-ado)
row,pKd,Binder
1,below the threshold,B1

# Molecular target: T10, APBA3_1, O96018
# Test: holdup assay
# Set-up: key: below the threshold = too weak to quantify, mostly under pKd 3.1 to 4
# Conditions: plain residues with an end cap or a label only (N-terminal biotin on a linker: ado-ado)
row,pKd,Binder
1,below the threshold,B1

# Molecular target: T11, SNTG2, Q9NY99
# Test: holdup assay
# Set-up: key: below the threshold = too weak to quantify, mostly under pKd 3.1 to 4
# Conditions: plain residues with an end cap or a label only (N-terminal biotin on a linker: ado-ado)
row,pKd,Binder
1,4.48,B1
